Consider one substance from article doi:10.1101/633420.

The assay deals with PRR (UniProt P10636). Kind of assay: fluorescence correlation spectroscopy.
Chain of UniProt P10636 (P10636 466-561): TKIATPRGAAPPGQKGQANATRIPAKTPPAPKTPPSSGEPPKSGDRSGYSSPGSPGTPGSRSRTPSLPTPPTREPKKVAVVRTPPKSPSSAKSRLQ

Chain of tubulin (Q6B856 whole entry, looked up): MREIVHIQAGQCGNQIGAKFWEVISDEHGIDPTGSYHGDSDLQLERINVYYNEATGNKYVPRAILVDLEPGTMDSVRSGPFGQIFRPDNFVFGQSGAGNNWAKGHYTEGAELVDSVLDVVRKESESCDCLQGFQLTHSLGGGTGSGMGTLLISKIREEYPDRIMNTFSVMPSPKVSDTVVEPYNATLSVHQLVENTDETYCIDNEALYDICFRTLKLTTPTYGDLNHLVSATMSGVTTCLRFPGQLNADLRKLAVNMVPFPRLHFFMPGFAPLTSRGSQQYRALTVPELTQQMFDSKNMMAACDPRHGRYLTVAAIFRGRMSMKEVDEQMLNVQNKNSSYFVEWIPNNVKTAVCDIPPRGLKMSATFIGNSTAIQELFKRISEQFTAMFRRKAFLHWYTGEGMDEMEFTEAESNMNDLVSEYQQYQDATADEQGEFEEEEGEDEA

For “tubulin (from UniProt Q6B856 1-445) (complex)”, the Kd (commonly the free concentration of one partner at which half of the binding sites on the other are occupied at equilibrium, for simple one-to-one binding) is 900 nM and the stoichiometry N (tubulin dimers per PRR) came out at 2.
